These results are taken from article PMC7644020.

The target in one experiment is cFN^ΔRGD (mouse) (UniProt P11276).

cFN^RGE (mouse), P11276, sequence (P11276 33-2477): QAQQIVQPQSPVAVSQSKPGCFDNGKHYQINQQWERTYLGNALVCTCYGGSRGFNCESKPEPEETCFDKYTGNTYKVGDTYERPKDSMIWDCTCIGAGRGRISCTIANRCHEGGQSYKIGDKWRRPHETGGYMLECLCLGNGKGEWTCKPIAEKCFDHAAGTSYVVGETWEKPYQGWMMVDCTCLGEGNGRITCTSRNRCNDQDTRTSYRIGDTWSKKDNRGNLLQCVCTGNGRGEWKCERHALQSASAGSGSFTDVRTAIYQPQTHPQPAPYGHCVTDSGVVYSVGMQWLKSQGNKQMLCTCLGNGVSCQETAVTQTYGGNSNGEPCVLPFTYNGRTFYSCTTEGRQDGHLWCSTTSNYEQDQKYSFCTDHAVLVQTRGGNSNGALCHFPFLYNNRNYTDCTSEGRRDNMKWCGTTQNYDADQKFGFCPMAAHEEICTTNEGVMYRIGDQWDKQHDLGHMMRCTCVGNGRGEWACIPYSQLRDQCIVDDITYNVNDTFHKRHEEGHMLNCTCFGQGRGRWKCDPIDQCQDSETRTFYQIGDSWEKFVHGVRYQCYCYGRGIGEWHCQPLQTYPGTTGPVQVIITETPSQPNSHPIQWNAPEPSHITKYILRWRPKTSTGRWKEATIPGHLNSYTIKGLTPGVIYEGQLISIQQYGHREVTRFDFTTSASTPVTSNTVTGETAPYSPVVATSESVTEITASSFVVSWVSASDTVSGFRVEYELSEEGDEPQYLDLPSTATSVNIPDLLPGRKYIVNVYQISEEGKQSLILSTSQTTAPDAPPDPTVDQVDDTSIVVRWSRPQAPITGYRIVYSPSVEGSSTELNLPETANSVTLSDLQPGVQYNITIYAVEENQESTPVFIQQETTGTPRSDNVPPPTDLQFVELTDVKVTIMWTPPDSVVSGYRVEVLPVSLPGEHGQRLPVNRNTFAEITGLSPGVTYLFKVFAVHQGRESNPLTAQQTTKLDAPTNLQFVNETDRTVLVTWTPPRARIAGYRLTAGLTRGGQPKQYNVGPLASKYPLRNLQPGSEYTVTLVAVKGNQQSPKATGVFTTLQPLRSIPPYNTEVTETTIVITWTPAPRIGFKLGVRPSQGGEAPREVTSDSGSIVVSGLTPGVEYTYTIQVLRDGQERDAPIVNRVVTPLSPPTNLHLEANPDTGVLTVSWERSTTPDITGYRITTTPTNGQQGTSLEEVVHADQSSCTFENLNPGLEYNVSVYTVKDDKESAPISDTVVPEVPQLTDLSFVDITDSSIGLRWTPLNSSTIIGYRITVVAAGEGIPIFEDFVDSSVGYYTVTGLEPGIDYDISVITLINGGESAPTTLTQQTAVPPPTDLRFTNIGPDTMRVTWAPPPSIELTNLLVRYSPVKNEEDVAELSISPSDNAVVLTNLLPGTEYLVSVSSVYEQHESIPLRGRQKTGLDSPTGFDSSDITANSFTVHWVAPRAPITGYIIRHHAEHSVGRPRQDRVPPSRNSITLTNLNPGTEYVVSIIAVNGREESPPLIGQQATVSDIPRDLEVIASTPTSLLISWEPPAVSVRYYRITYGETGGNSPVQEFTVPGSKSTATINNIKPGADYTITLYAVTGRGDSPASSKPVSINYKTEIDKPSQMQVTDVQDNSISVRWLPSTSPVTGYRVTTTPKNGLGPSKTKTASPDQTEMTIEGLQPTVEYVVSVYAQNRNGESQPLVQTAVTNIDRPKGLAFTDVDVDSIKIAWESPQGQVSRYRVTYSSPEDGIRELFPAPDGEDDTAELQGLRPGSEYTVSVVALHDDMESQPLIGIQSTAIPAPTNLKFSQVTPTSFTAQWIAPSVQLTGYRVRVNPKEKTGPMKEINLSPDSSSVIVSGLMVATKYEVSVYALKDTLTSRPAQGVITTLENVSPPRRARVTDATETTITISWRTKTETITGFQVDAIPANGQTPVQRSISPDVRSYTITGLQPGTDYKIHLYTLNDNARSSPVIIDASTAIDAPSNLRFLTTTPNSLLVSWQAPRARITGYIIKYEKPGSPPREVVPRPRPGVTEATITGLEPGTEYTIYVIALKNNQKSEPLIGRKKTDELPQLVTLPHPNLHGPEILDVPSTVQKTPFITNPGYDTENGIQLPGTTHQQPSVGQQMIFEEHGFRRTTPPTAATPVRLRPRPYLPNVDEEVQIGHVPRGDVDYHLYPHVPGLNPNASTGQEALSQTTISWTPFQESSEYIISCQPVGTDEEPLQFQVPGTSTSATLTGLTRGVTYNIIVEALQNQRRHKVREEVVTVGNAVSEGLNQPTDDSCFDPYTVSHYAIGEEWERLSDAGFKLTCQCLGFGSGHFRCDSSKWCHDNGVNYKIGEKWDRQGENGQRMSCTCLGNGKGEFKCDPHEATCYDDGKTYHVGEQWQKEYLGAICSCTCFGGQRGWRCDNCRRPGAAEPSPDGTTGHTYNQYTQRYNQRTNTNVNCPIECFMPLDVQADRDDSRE

For the molecule “α5β1 integrin on pKO-β1 fibroblasts (from UniProt P11688 45-1053; P09055 21-798) (receptor)”, the spreading area of the adherent fibroblasts on the purified cFN variant with cFN^ΔRGD (mouse) was determined as 136 µm^2.

B1: α5β1 integrin on pKO-β1 fibroblasts, P11688 45-1053; P09055 21-798 (receptor)
chain 1: FNLDAEAPAVLSGPPGSLFGFSVEFYRPGRDGVSVLVGAPKANTSQPGVLQGGAVYVCPWGTSPIQCTTIQFDSKGSRILESSLYSAKGEEPVEYKSLQWFGATVRAHGSSILACAPLYSWRTEKDPQNDPVGTCYLSTENFTRILEYAPCRSDFGSAAGQGYCQGGFSAEFTKTGRVVLGGPGSYFWQGQILSATQEQISESYYPEYLINPVQGQLQTRQASSVYDDSYLGYSVAVGEFSGDDTEDFVAGVPKGNLTYGYVTVLNGSDIHSLYNVSGEQMASYFGYAVAATDTNGDGLDDLLVGAPLLMERTADGRPQEVGRVYIYLQRPAGIDPTPTLTLTGQDEFSRFGSSLTPLGDLDQDGYNDVAIGAPFGGEAQQGVVFIFPGGPGGLSTKPSQVLQPLWAAGRTPDFFGSALRGGRDLDGNGYPDLIVGSFGVDKALVYRGRPIISASASLTIFPSMFNPEERSCSLEGNPVSCINLSFCLNASGKHVPNSIGFEVELQLDWQKQKGGVRRALFLTSKQATLTQTLLIQNGAREDCREMKIYLRNESEFRDKLSPIHIALNFSLDPKAPMDSHGLRPVLHYQSKSRIEDKAQILLDCGEDNICVPDLQLDVYGEKKHVYLGDKNALNLTFHAQNLGEGGAYEAELRVTAPLEAEYSGLVRHPGNFSSLSCDYFAVNQSRQLVCDLGNPMKAGTSLWGGLRFTVPHLQDTKKTIQFDFQILSKNLNNSQSNVVSFPLSVEAQAQVSLNGVSKPEAVIFPVSDWNPQDQPQKEEDLGPAVHHVYELINQGPSSISQGVLELSCPQALEGQQLLYVTKVTGLSNCTSNYTPNSQGLELDPETSPHHLQKREAPGRSSTASGTQVLKCPEAKCFRLRCEFGPLHRQESRSLQLHFRVWAKTFLQREYQPFSLQCEAVYEALKMPYQILPRQLPQKKLQVATAVQWTKAEGSNGVPLWIIILAILFGLLLLGLLIYVLYKLGFFKRSLPYGTAMEKAQLKPPATSDA
chain 2: QTDKNRCLKANAKSCGECIQAGPNCGWCTNTTFLQEGMPTSARCDDLEALKKKGCQPSDIENPRGSQTIKKNKNVTNRSKGMAEKLRPEDITQIQPQQLLLKLRSGEPQKFTLKFKRAEDYPIDLYYLMDLSYSMKDDLENVKSLGTDLMNEMRRITSDFRIGFGSFVEKTVMPYISTTPAKLRNPCTSEQNCTSPFSYKNVLSLTDRGEFFNELVGQQRISGNLDSPEGGFDAIMQVAVCGSLIGWRNVTRLLVFSTDAGFHFAGDGKLGGIVLPNDGQCHLENNVYTMSHYYDYPSIAHLVQKLSENNIQTIFAVTEEFQPVYKELKNLIPKSAVGTLSGNSSNVIQLIIDAYNSLSSEVILENSKLPDGVTINYKSYCKNGVNGTGENGRKCSNISIGDEVQFEISITANKCPNKESETIKIKPLGFTEEVEVVLQFICKCNCQSHGIPASPKCHEGNGTFECGACRCNEGRVGRHCECSTDEVNSEDMDAYCRKENSSEICSNNGECVCGQCVCRKRDNTNEIYSGKFCECDNFNCDRSNGLICGGNGVCRCRVCECYPNYTGSACDCSLDTGPCLASNGQICNGRGICECGACKCTDPKFQGPTCETCQTCLGVCAEHKECVQCRAFNKGEKKDTCAQECSHFNLTKVESREKLPQPVQVDPVTHCKEKDIDDCWFYFTYSVNGNNEAIVHVVETPDCPTGPDIIPIVAGVVAGIVLIGLALLLIWKLLMIIHDRREFAKFEKEKMNAKWDTGENPIYKSAVTTVVNPKYEGK
In turn, B1 registered a spreading area of the few adherent fibroblasts on the purified cFN variant in the experiment with cFN^RGE (mouse), P11276 of 419 µm^2.
